Data on two molecules can be found in article doi:10.1101/354985.

Test in all cases: EMSA
For data set [1], the target named is T1, POT1a;TPP1 (mouse;mouse?, UniProt Q91WC1;Q5EE38 1-640;1-416, |).
T1 sequence 1: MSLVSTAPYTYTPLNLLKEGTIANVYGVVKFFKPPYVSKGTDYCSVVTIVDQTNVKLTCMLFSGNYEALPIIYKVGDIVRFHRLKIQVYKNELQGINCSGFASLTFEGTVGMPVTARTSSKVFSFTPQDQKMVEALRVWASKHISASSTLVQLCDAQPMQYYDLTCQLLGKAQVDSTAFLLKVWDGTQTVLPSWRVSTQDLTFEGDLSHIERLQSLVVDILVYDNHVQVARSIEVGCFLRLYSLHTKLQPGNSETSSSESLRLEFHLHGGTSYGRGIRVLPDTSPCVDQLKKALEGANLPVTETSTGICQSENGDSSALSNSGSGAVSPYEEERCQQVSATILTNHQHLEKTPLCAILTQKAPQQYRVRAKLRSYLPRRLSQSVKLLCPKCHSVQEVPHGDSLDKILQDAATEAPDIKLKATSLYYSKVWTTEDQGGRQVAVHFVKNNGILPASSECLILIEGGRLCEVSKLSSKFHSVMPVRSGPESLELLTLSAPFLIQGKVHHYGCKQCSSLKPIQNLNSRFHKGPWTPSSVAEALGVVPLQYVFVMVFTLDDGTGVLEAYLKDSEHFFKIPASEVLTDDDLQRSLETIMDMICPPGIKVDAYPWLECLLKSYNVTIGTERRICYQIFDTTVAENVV
T1 sequence 2: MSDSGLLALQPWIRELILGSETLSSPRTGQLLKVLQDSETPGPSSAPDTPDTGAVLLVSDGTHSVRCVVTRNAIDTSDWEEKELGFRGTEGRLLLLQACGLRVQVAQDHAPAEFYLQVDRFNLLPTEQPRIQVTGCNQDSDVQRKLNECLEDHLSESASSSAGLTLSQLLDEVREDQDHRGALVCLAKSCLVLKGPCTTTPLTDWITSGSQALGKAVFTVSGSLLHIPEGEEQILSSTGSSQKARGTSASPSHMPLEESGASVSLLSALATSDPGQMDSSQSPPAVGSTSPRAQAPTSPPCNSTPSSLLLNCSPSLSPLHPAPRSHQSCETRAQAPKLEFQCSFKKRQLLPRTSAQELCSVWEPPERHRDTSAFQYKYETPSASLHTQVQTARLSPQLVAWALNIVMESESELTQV

Data set [2] has as its target T2, Δ70-POT1aC;TPP1 (mouse? (POT1a part); RPA70 organism not …, UniProt Q8VEE4;Q5EE38 191-623+Q91WC1:149-640;1-416, internal_change|).
The target of data set [3] is T1, POT1a;TPP1. This is another data set of the same source.
The target of data set [4] is T2, Δ70-POT1aC;TPP1. The source holds these as a separate data set.

B1: Telo34 (ssDNA)
DNA: TTAGGGTTAGGGTTAGGGTTAGGGTTAGGGTTAG
B1: the Kd in the data set with POT1a;TPP1 [1] and with Δ70-POT1aC;TPP1 [2] was approximately 0.5 nM throughout.

B2: Scr35 (ssDNA)
DNA: ATGCGACTCGAGCTAGATGATGTCTTCTGCAATCA
In the case of B2, the binding result with POT1a;TPP1 [3] is recorded as “no binding”; in the data set with Δ70-POT1aC;TPP1 [4], “binds”.
